{
  "source": "patent US10787640B2",
  "about": "“Producing mesodermal cell types and methods of using the same” (The Board of Trustees of the Leland Stanford Junior …, priority 2015, dated 2020)",
  "molecules": {"B1": {"name": "BMP4: BMP family ligand, BMP agonist (protein, UniProt P12644 293-408, looked up)", "Bone morphogenetic protein 4": "SPKHHSQRARKKNKNCRRHSLYVDFSDVGWNDWIVAPPGYQAFYCHGDCPFPLADHLNSTNHAIVQTLVNSVNSSIPKACCVPTELSAISMLYLDEYDKVVLKNYQEMVVEGCGCR"}, "B2": {"name": "Activin: TGFβ agonist (protein, UniProt P08476 311-426, looked up)", "Inhibin beta A chain": "GLECDGKVNICCKKQFFVSFKDIGWNDWIIAPSGYHANYCEGECPSHIAGTSGSSLSFHSTVINHYRMRGHSPFANLKSCCVPTKLRPMSMLYYDDGQNIIKKDIQNMIVEECGCS", "modifications": "Inhibin beta A chain", "notes": "TGFβ agonist"}},
  "key": {"[1]": {"test_system": "hESC-derived primitive streak", "experiment": "Paraxial versus lateral/cardiac mesoderm specification from primitive streak", "type": "cell-based, human", "procedure": "(§1) Subsequently, day 1 anterior primitive streak was briefly washed (DMEM/F12) and differentiated towards day 2 paraxial mesoderm for 24 hours (1 μM A-83-01+3 μM CHIR99021+250 nM LDN-193189+20 ng/mL FGF2). Separately, day 1 mid primitive streak was differentiated towards day 2 lateral mesoderm for 24 hours (1 μM A-83-01+30 ng/mL BMP4+1 μM C59; with 2 μM SB-505124 sometimes used instead of A-83-01).\nB) To assess whether FGF/ERK signaling was permissive for both paraxial and lateral/cardiac mesoderm specification, hESCs were differentiated into primitive streak for 24 hours, and then transferred into (i) A-83-01+DM3189 (“AD”; permissive for paraxial mesoderm) or (iii) A-83-01+BMP4+C59 (“AB+C59”; permissive for lateral/cardiac mesoderm) for 24 hours in the presence or absence of a FGF agonist (FGF2, 10-20 ng/mL), an FGFR inhibitor (PD173074, 100 nM) or a MAPK/ERK inhibitor (PD0325901, 500 nM) for 24 hours and qPCR for all experiments was conducted on day 2 (that is, after 48 total hours of hESC differentiation). To assess whether TGFβ signaling altered paraxial, intermediate and lateral/cardiac mesoderm specification, hESCs were differentiated into primitive streak for 24 hours, and then transferred into (ii) DM3189+FGF2 (“DF”; permissive for paraxial mesoderm) or (iv) BMP4+C59 (“B+C59”; permissive for lateral/cardiac mesoderm) for 24 hours in the presence of a TGFβ agonist (Activin, 10-25 ng/mL) or a TGFβR inhibitor (A-83-01, 1 μM) for 24 hours or (v) BMP4 (3 ng/mL)+FGF2 (20 ng/mL) (“B3F20”) for 24 hours in the presence of a TGFβ agonist (Activin, 3-25 ng/mL) or a TGFβR inhibitor (A-83-01, 1 μM) and qPCR for all experiments was conducted on day 2 (that is, after 48 total hours of hESC differentiation). […] Therefore, hESCs were differentiated towards primitive streak for 24 hours, and then subsequently transferred into (i) A-83-01+CHIR99021+FGF2 (ACF) in the presence or absence of one of two BMPR inhibitors (DMH1, 1 μM or LDN193189, 250 nM) for 24 hours and qPCR was conducted on day 2. Alternately, hESC-derived PS was transferred into (ii) CHIR99021+DM3189+FGF2 (CDF) for 24 hours in the presence or absence of a TGFβ agonist (25 ng/mL Activin) or one of two TGFβR inhibitors (SB-505124, 2 μM or A-83-01, 1 μM) for 24 hours and qPCR was conducted on day 2. […] E) To test the role of FGF in lateral mesoderm induction (on day 2 of hESC differentiation), NKX2.5-GFP hESCs were differentiated into mid primitive streak for 24 hours, and then were treated with BMP4+C59+SB505124 in the presence of an FGF agonist (FGF2, 20-50 ng/mL) or a FGFR inhibitor (PD173074, 100 nM) or a MAPK/ERK inhibitor (PD0325901, 500 nM) for 24 hours, and then all cultures were treated with BMP4+C59+SB505124+FGF2 for 24 hours more before being harvested on day 3 for FACS."}, "hESCs": {"test_system": "hESCs", "experiment": "Downstream mesoderm potential of PS induced with Activin or BMP4", "type": "cell-based, human", "procedure": "as §1\nE) To assess whether inducing PS in the presence of TGFβ signaling altered its downstream potential to form different kinds of mesoderm, (i) H7 hESCs were differentiated into PS with CHIR99021+FGF2+PIK90 (CFK) for 24 hours in the presence or absence of increasing amounts of Activin (10-100 ng/mL), and then were transferred into paraxial mesoderm induction conditions (A-83-01+CHIR99021+DM3189+FGF2) for 24 hrs, and qPCR was conducted or (ii) H7 hESCs were differentiated into PS with BMP4 (10 ng/mL)+CHIR99021+FGF2+PIK90 (B10CFK) for 24 hours in the presence or absence of increasing amounts of Activin (10-100 ng/mL), and then were transferred into lateral/cardiac mesoderm inductions (A-83-01+BMP4+C59) for 24 hours and qPCR was conducted. […] F) To assess whether inducing PS in the presence of BMP signaling altered its downstream potential to form different kinds of mesoderm, H7 hESCs were differentiated into PS with Activin (10 ng/mL)+CHIR99021+FGF2+PIK90 (A10CFK) for 24 hours in the presence of absence of increasing amounts of BMP4 (1-40 ng/mL), and then were (i) transferred into paraxial mesoderm induction conditions (A-83-01+CHIR99021+DM3189+FGF2) for 24 hrs, and qPCR was conducted or were (ii) transferred into lateral/cardiac mesoderm inductions (A-83-01+BMP4+C59) for 24 hours and qPCR was conducted. […] G) H7 hESCs were differentiated into anterior primitive streak (30 ng/mL Activin+4 μM CHIR99021+20 ng/mL FGF2+100 nM PIK90) in the presence or absence of BMP4 (10 ng/mL) for 24 hours, and then transferred into paraxial mesoderm induction conditions for 24 hours before TBX6 immunostaining was conducted. […] H) NKX2.5-GFP hESCs were differentiated into primitive streak with BMP4+CHIR99021+FGF2+PIK90 for 24 hours in the presence or absence of increasing doses of Activin (10-100 ng/mL), and then transferred into suboptimal lateral/cardiac mesoderm induction conditions (A-83-01+BMP4+C59, without FGF2) for 48 hours and FACS was performed after 72 hours of total differentiation to quantify NKX2.5-GFP^+ cell percentages. […] I) Efficient MIXL11^+ PS specification is highly reproducible in both anterior and mid PS differentiation conditions (“APS” and “MPS”, respectively) across 4 independent differentiation experiments, as assayed by a MIXL1-GFP knock-in reporter hESC line. Each circle or triangle represents an individual experiment and the average differentiation efficiency attained across all experiments is indicated."}},
  "data": [
    {"molecule": "Cc1cccc(-c2[nH]c(C(C)(C)C)nc2-c2ccc3c(c2)OCO3)n1", "note": "[SB-505124, 2-[4-(1,3-Benzodioxol-5-yl)-2-(1,1-dimethylethyl)-1H-imidazol-5-yl]-6-methyl-pyridine]", "values": [
      {"measurement": "paraxial mesoderm induction (qPCR day 2)", "setting": "[1]; ACF with DMH1 1 μM or LDN193189 250 nM, CDF with SB-505124 2 μM or A-83-01 1 μM, 24 hours", "value": "serve to induce paraxial mesoderm"},
      {"measurement": "NKX2.5-GFP+ cardiac mesoderm induction (FACS day 3)", "setting": "[1]; BMP4 (50 ng/mL)+C59, 48 hours, SB-505124 2 μM or A-83-01 1 μM, P<0.01", "value": "increased NKX2.5-GFP^+ cardiac mesoderm induction"}
    ]},
    {"molecule": "B1", "values": [
      {"measurement": "paraxial mesoderm potential of PS (qPCR)", "setting": "hESCs; PS induced in A10CFK with BMP4 (1-40 ng/mL)", "value": "strongly blocked paraxial mesoderm potential"},
      {"measurement": "lateral/cardiac mesoderm potential of PS (qPCR)", "setting": "hESCs; PS induced in A10CFK with high BMP4 (40 ng/mL)", "value": "maximized lateral/cardiac mesoderm potential"},
      {"measurement": "TBX6 immunostaining after paraxial mesoderm induction", "setting": "hESCs; anterior PS induced with BMP4 (10 ng/mL), 24 hours", "value": "larger numbers of TBX6^− clusters of non-paraxial mesoderm cells"},
      {"measurement": "lateral mesoderm specification (qPCR)", "setting": "[1]; A8301+C59, 24 hours, BMP4 10-30 ng/mL", "value": "required to drive lateral mesoderm specification"}
    ]},
    {"molecule": "B2", "values": [
      {"measurement": "lateral/cardiac mesoderm potential of PS (qPCR)", "setting": "hESCs; PS induced in B10CFK with lower Activin (e.g., 10 ng/mL)", "value": "had maximal lateral/cardiac mesoderm potential"},
      {"measurement": "paraxial mesoderm potential of PS (qPCR)", "setting": "hESCs; PS induced in CFK with higher Activin doses (e.g., 30 ng/mL)", "value": "instilled paraxial mesoderm potential"},
      {"measurement": "NKX2.5-GFP+ cell percentages (FACS, 72 hours)", "setting": "hESCs; higher Activin doses (50-100 ng/mL) during PS induction", "value": "less effective"},
      {"measurement": "NKX2.5-GFP+ cell percentages (FACS, 72 hours)", "setting": "hESCs; low to moderate Activin during PS induction", "value": "maximizes subsequent differentiation into NKX2.5-GFP^+ cardiac mesoderm"}
    ]}
  ]
}
